Target: luteinizing hormone receptor (LHR) (Homo sapiens, UniProt P22888)
Experiment: [125I]-hCG binding to transfected SKOV-3 cells

Chain of luteinizing hormone receptor (LHR) (P22888 27-699): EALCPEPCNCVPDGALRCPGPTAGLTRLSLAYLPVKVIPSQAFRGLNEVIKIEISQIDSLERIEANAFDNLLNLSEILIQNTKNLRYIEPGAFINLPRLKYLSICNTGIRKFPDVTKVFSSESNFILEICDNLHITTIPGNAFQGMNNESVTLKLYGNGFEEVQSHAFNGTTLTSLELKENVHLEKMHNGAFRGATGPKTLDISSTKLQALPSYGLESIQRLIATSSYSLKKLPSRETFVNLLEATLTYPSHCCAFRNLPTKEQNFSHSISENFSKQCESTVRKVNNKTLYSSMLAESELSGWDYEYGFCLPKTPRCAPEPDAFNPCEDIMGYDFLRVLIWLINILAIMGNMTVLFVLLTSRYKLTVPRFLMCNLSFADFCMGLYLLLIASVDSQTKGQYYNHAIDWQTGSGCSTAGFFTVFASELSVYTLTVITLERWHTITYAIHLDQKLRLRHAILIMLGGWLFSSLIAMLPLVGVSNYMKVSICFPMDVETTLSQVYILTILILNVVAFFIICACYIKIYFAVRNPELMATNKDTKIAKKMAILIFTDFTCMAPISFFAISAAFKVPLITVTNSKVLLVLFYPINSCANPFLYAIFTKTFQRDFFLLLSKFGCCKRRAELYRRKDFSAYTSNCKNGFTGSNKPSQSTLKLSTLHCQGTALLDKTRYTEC

B1: human chorionic gonadotropin (protein)
chain 1: not shown
chain 2: SKEPLRPRCRPINATLAVEKEGCPVCITVNTTICAGYCPTMTRVLQGVLPALPQVVCNYRDVRFESIRLPGCPRGVNPVVSYAVALSCQCALCRRSTTDCGGPKDHPLTCDDPRFQDSSSSKAPPPSLPSPSRLPGPSDTPILPQ
modifications: 125I-labelled hCG
  Kd: 0.3 nM

Reference: publication PMC3141782 (2011)
